Assay results as given in patent publication US20240026334A1.

Biological target: type I collagen
Assay: cell-based or functional assay

unbound DNA in DNA binding assay (1:1 elastin to collagen): 0.077 µM | unbound DNA in DNA binding assay (1:2 elastin to collagen): 0.116 µM
Substance: elastin
